Measurements published in the Human Domainome abundance scans (Beltran et al. 2025).

B1: Cullin-9, residues 2234 to 2275; numbered along this chain, Q8IWT3 (parent)
chain: KRCPSCQAPIEKNEGCLHMTCAKCNHGFCWRCLKSWKPNHKD

Variants of: B1
Test: abundance fitness (aPCA) (normalised: wild type 0, dead -1); higher = more abundant; growth selection in yeast, the domain comes from the species named
Details: Homo sapiens

Abundance fitness, by site and new letter:
C21: D -0.239, Q -0.537, G -0.482, F -0.917, H -1.16, V -0.677, I -0.968, P -0.612, N -0.462, R -0.866, M -0.962
M19: C -0.012, H -0.405, E -0.186, F -0.48, Q -0.019, L -0.034, T 0.182, W -0.223, D 0.046, G -0.22, K 0.003
W30: Q -0.05, E 0.016, V -0.056, D 0.019
Q7: P -0.18, G 0.258, T -0.073
G27: E 0.708, H 0.379, R 0.159, C 0.036, I -0.083, S 0.256, P -0.129, Y -0.425, D 0.193
N13: A -0.071, D -0.209, Y -0.244, K 0.117, V 0.051, M -0.023, P 0.183, F -0.36, R -0.034, I 0.493, H -0.165, T 0.185
P4: H -0.022, A 0.098, D -1.47, K -1.44, W -0.147, Q -0.351, V 0.117, T 0.002, E -1.27, L 0.065
R31: Q 0.208, G 0.128, C 0.055, P -0.17, W -0.025, V 0.128, F -0.258, T 0.03, A -0.026, E 0.162
K23: H -0.223, T -0.115, R -0.015, P -0.695
K41: T -0.277, W -0.646, A 0.047, M -0.373, L -0.295, R -0.128, H 0.256, C 0.578, V 0.255
T20: Q -0.029, C -0.447, Y 0.316, H -0.154, E -0.306, P -0.103, M -0.035, L -0.099, A -0.218, S -0.304
F28: N 0.135, L -0.233, A -0.173, V -0.236, H 0.322, M -0.39, D 0.101
A22: G -0.254, Y 0.082, I -0.025, W -0.096, V -0.306, P 0.149, R -0.242
R2: S 0.077, E 0.175, A 0.084, T 0.147, L 0.227
C24: R -0.594, S -0.384, D -0.045, P -0.249, E -0.129, H -0.382, T -0.735, F -0.534
G15: P -0.259, S -0.362, A -0.003, W -0.176
S35: H -0.373, C -0.195, E 0.17, M 0.037, L 0.078, P 0.446, I -0.438, R -0.356
S5: Y -0.291, Q 0.31, M 0.395, D -0.147, G 0.56, K 0.489, V 0.259, C 0.137
W36: Y -0.17, C -0.391, L 0.205, A 0.029, R -0.25, P 0.067, G -0.026, F -0.194, V 0.304, S 0.118, T 0.147
C3: S -0.303, Q -1.07, W -1.4, D -0.018, R -0.751, K -0.658
H18: E 0.019, G -0.216, F -0.058, M 0.154, T -0.438, A -0.142, D -0.274, I -0.155, P -0.427
L17: C -0.209, W -0.169, D -0.006, S -0.186, K -0.862
C6: L -0.295, N 0.056, W -0.615, F -0.846, I -0.419, P -0.639, R -0.612, M -0.447
C32: M -0.545, T -0.485, H -1.17, R -0.894, S -0.747, L -0.939, W -0.744, A -0.632, N -0.472, V -0.983
L33: V -0.414, W -0.48, K -0.184, T -0.29, C -0.412, P -0.464, E 0.02, Q -0.125, M -0.096
A8: T -0.027, F -0.01, S -0.058, D -0.284, Q 0.014, K -0.006, P -0.555, C -0.213
D42: R -0.951, L -0.444, G -0.21, T -0.073, A -0.117, S -0.387
C16: E 0.507, Q 0.416, M 0.202, A 0.329, R 0.227, D 0.544, P 0.161, N 0.23, I 0.444
H40: E 0.182, K -0.319, D 0.111, F -0.089, Q -0.123, V 0.006, P -0.091, W -0.427, Y -0.451, R -0.283
E14: G -0.071, L -0.411, P -0.011, C -0.001, V -0.397, T -0.12, R -0.369
E11: Y 0.319, S -0.41, C -0.487, K -0.27, L -0.318, H -0.138, T -0.159
P38: Q -0.163, C -0.695, F 0.042, L -0.178
N39: A 0.017, L 0.001, R -0.071, V -0.095, Y -0.384, H -0.377, K 0.045, M -0.14, F 0.269, C -0.093
K37: P -0.056, W -0.168, Y -0.059, F -0.193, E 0.219, G 0.125, I -0.039, C 0.057, R -0.156, V 0.078
I10: S -0.233, E 0.059, P -0.536, H -0.588, K -0.598, Q -0.231, V -0.138
N25: I -0.121, D 0.087, W -0.44, Q 0.082, P -0.382, F -0.242, T -0.106, S 0.03
P9: L -0.39, M 0.056, C -0.074, F -0.373, K -0.349, R -0.048, I -0.53, A -0.198
C29: M -0.969, Q -0.563, W -1.17, R -0.888, Y -0.847, E -0.432, V -0.969, K -0.632, L -0.696, G -0.737, S -0.749
K34: E 0.045, D -0.376, S -0.18, L -0.639, Q -0.128, T -0.313, I -0.539, F -0.378, H -0.252, W -0.765, A -0.431
H26: W -0.541, Y -0.1, Q -0.17, L -0.419, M -0.109, V -0.266, R -0.213
K12: Q 0.008, Y -0.152, V -0.2, H -0.151
K1: S -0.756, F -0.735, M -0.162, G -0.815, L -0.493, T -0.377, H -0.436, Q -0.691, I 0.164
